Measured values taken from US9494585B2, “Tools for the identification of Lingo-1, Lingo-2, Lingo-3 and Lingo-4 ligands, and uses thereof” (CENTRE NATIONAL DE LA RECHERCHE SCIENTIFIQUE-CNRS, priority 2010, dated 2016).
Blank lines part the entries; values can stand above or below the molecule they belong to.

Molecular target: T1, Lingo-1-RLuc/Lingo-1-YFP dimer (Homo sapiens, UniProt Q96FE5)
T1 construct: expressed in transfected cells; host or cells: HEK-293 (transient calcium phosphate transfection)
Assay: BRET measurement of Lingo-1 dimerization (Lingo-1-RLuc/Lingo-1-YFP) on live transfected HEK-293 cells
Format: cell-based
Conditions: for BRET signal obtained between Lingo-1-RLuc and Lingo-1-YFP: HEK-293, HA-tagged construct co-expressed (800 ng), constant donor/acceptor ratio, 48 h after transfection, p<0.001 vs control
Method: For the BRET experiments, the HEK-293 cells cultured in 6-well plates, pre-treated with collagen, are transiently transfected using the calcium phosphate technique. Briefly, the plasmid DNA is mixed into a phosphate buffer (2×BBS, composed in particular of 50 mM BES (Cat No. B4554, Sigma), 280 mM NaCl, 1.5 mM Na2HPO4, adjusted to pH 6.95) with calcium chloride (2.5 M). After incubation for 15 minutes, the precipitate obtained is applied to the cells for 24 hours. The cells are then rinsed and incubated for a further 24 hours in a culture medium without antibiotics.
The cells are resuspended in a physiological buffer (HBSS for Hank's Buffered Salt Solution (Cat No. 14025100, Gibco, composed in particular of calcium chloride, magnesium chloride, magnesium sulfate, potassium chloride, monobasic potassium phosphate, sodium bicarbonate, sodium chloride, anhydrous dibasic sodium phosphate)) 48 hours after transfection and distributed into 96-well plates (100 000 to 200 000 cells per well) or into 384-well plates (20 000 to 40 000 cells per well). The fluorescence and luminescence readings are carried out at ambient temperature on a microplate reader, Mithras LB 940 (Berthold). The yield from transfection of the Lingo-1-eYFP, Lingo-2-eYFP, Lingo-3-eYFP or Lingo-4-eYFP construct is evaluated by reading the fluorescence of the eYFP emitted at 530-540 nm after excitation at 480 nm. The yield from transfection of the Lingo-1-RLuc, Lingo-2-RLuc, Lingo-3-RLuc or Lingo-4-RLuc construct is evaluated by reading the luminescence (1 second) obtained immediately after the addition of the coelenterazine substrate (5 μM).
The measurement of the BRET signal is carried out immediately after the addition of coelenterazine. […] The energy transfer which takes place in the fusion protein between the Rluc and the eYFP causes the appearance of a fluorescence signal with a maximum emission at 530-540 nm, characteristic of the spectral properties of eYFP. […]
The BRET reading was carried out at ambient temperature on a microplate reader, Mithras LB 940 (Berthold), using the new BRET filters. […]

BRET signal obtained between Lingo-1-RLuc and Lingo-1-YFP: significantly decreased
BRET signal obtained between the Lingo-1-RLuc and Lingo-1-YFP proteins (HEK-293, Lingo-1-RLuc 250 ng/Lingo-1-YFP 1500 ng, new filters, HA-tagged protein at 0-2600 ng plasmid): significantly decreased
B1: DN-Lingo-1-HA: HA-tagged dominant negative of Lingo-1 (amino acids 1-577, without cytoplasmic portion), known Lingo-1 inhibitor (protein)
chain: CPPRCECSAQDRAVLCHRKRFVAVPEGIPTETRLLDLGKNRIKTLNQDEFASFPHLEELELNENIVSAVEPGAFNNLFNLRTLGLRSNRLKLIPLGVFTGLSNLTKLDISENKIVILLDYMFQDLYNLKSLEVGDNDLVYISHRAFSGLNSLEQLTLEKCNLTSIPTEALSHLHGLIVLRLRHLNINAIRDYSFKRLYRLKVLEISHWPYLDTMTPNCLYGLNLTSLSITHCNLTAVPYLAVRHLVYLRFLNLSYNPISTIEGSMLHELLRLQEIQLVGGQLAVVEPYAFRGLNYLRVLNVSGNQLTTLEESVFHSVGNLETLILDSNPLACDCRLLWVFRRRWRLNFNRQQPTCATPEFVQGKEFKDFPDVLLPNYFTCRRARIRDRKAQQVFVDEGHTVQFVCRADGDPPPAILWLSPRKHLVSAKSNGRLTVFPDGTLEVRYAQVQDNGTYLCIAANAGGNDSMPAHLHVRSYSPDWPHQPNKTFAFISNQPGEGEANSTRATVPFPFDIKTLIIATTMGFISFLGVVLFCLV
modifications: left off: small tags and cut ends

BRET signal obtained between Lingo-1-RLuc and Lingo-1-YFP: significantly decreased
B2: Lingo-1-HA: whole human Lingo-1 protein (amino acids 1-620) tagged with HA (protein)
chain: CPPRCECSAQDRAVLCHRKRFVAVPEGIPTETRLLDLGKNRIKTLNQDEFASFPHLEELELNENIVSAVEPGAFNNLFNLRTLGLRSNRLKLIPLGVFTGLSNLTKLDISENKIVILLDYMFQDLYNLKSLEVGDNDLVYISHRAFSGLNSLEQLTLEKCNLTSIPTEALSHLHGLIVLRLRHLNINAIRDYSFKRLYRLKVLEISHWPYLDTMTPNCLYGLNLTSLSITHCNLTAVPYLAVRHLVYLRFLNLSYNPISTIEGSMLHELLRLQEIQLVGGQLAVVEPYAFRGLNYLRVLNVSGNQLTTLEESVFHSVGNLETLILDSNPLACDCRLLWVFRRRWRLNFNRQQPTCATPEFVQGKEFKDFPDVLLPNYFTCRRARIRDRKAQQVFVDEGHTVQFVCRADGDPPPAILWLSPRKHLVSAKSNGRLTVFPDGTLEVRYAQVQDNGTYLCIAANAGGNDSMPAHLHVRSYSPDWPHQPNKTFAFISNQPGEGEANSTRATVPFPFDIKTLIIATTMGFISFLGVVLFCLVLLFLWSRGKGNTKHNIEIEYVPRKSDAGISSADAPRKFNMKMI
modifications: left off: small tags and cut ends
notes: whole human Lingo-1 protein (amino acids 1-620) tagged with HA
